Data from a protein production outcome set (Wang et al. 2014).

Assay: label from the status in PepcDB records
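Further: failed if final PepcDB status was selected cloned or expressed and not failed if soluble or beyond.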

For “MRGLSLSPVVLPEVRREAGVELRKARLEDVDAIYWLIRYWAEKGLMLVRSHSHLYENIRDFWVLEDEDGQIVGTVALHVLWRDLAEIRGLAVHPTRQGQGLGRWLVLGAEREARDLGLPRVFAWTLQVNFFRALGYRVTSR”, the protein production was “failed”.
With “MSKFRSCSWKCSDMGKSLCGAGGLVWTPPHPLLRKALSHRGRGVKDTNFVGMTTRAVRKGTLRARALRRTQTVEEKTLWLALRNRFLNVKFRRQWPMGGYVVDFVCFEAKLIVELDGSQHAEEAARDYDAVRTEFLEAGGFTVLRFWNNEVRKNLEGVLLEIQKRLP” the protein production was “failed”.
In the case of “MDIPQAIKYYEQACDLDGDYGCFNAAYFYEYGIGTQKDITQAKTLAKQLREKINLSNINLDKKVSERIIGSVYSNKLEAYRDLSFRPHFIQGLSFYFYAPQSDERKLLSRIGFDSSHLARIAILWAREGDPEVAYQTAKLVSTLYFNNETKTIDIAEALKWLRISAEKGDADSQTLLGFLYEHAGLGLQPDGEKARKWYEMAAQQGNGEALYTLGRMYYSGVLVNVDYDKALYFFKKAYEKKLQEAADYLAQMYFNGQSVDVDCQQSWHYYDNSYIKKMTQRDYLDYCEKDRKRRNDFNQQLPELTLEKYAGLFGRIDNIPLCQIGFVVNTNKLIHVANLRVELILKNDAGVSDERMVAFPPLGLNTLGAEQGMGDSFKSMGYLLMKNGDLCDYHKLTFTVKSATATINGKKVDLLKTDNLHIIQNR”, the protein production is reported as “failed”.
In the case of “MGHHHHHHSHGQQSVSNKLLAWSGVLEWQEKPKPASVDANTKLTRSLPCQVYVNHGENLKTEQWPQKLIMQLIPQQLLTTLGPLFRNSRMVQFHFTNKDLESLKGLYRIMGNGFAGCVHFPHTAPCEVRVLMLLYSSKKKIFMGLIPYDQSGFVNGIRQVITN”, the protein production is reported as “not failed”.
For “MVYPRMGRVPLPPKGAQHYTTMCQFCNVGCGYDVYVWPAGAEGSPEPGGHGIEYKIVDEAYGRNLVKQPDFTKEHTGLSAEEGEPWISEAMVVKTIRRTWERGRGTGGWREVYVAQVPSPECPINWGNHSVRGGTQAERIWSPWNIAGERRLTKPLVRFGGRLEPVSWEYAIDLVARVVKGVIDKWGIERPGWGKEGHAVFAHRMDHGGGGGGGMIFNTVVGLFFFYGVRTAFARIHNRPFFGPENPAAGDAGPGAMNTSYHDLRLADTIILWGNNPYSTATVMFVKHVLDNLRGATKAEKQRWFNPGEPVIDSRIIIVDPRRTETVEAAEAAAGKDRVLHLQVKPGTDIVLANAIARVIYERYGDVVEEFVNHYRSAAGWGFKWDEEGFQKYVSEALQVGEETLDEVLAEAESITGVPRDKIELAAKWIAERKEGGYPKRVWLMYEKGIIWNQNYRSIYSLFDLCMIAGATRGLPGCGCQRQGGHQEGFASPAPPPPPWTDERHHIAYPDKSLYDEYYNTKYPRADFYMPTTDFRLANGEGKVLWVIDMDNYRLAPNSQRLKAVVGDRAWRVTRYVFAEAYANVGGKESEPNYDPNALEPVITTPPSSREYAEKVLQALEETGGLFVIVEDIYPTFMVEDAHVVLPAAFNNGEWPDVRMGVHERRFRIADAWLDPPGEAKPDWWILANVAKRIVELYEEEGRGGDPVAERFRKAFKPIWDAMEANARDPTVEVENEIFKTYIANADEAYARLGVHWEVQYWTPEFKKLDLNILRKLRTIGTVLPITKLDVKPDGTIEVRGVVNIMEPALNDTYREEVVVVKPDGTIVRRIEVVPSNETVRSYVPGHLKPWPAVWDKYPPYVDELIRKGYKYWVVNGRYNAIWQTGYADPNVVEIMARHPMNIVQVNPEDAAKEGLENGDIVVIYNDYGSTTAMVWVTRVVAPGTIFLIMAHPKAVGANAVTTPSVDPAAQNPDYKLTLANLRKIGRADETIIKKVTFKDIRFAVR”, the protein production was “failed”.
For “MAPRQLAAADLAVGQVVAQREIRLDAQAFAQFAALTGDAHPIHYDAGYVQRQGLRAPIAHGLLLVAISALGATPLSAQLHDAMVAMVGVEAVFMRPVYVDETVQCVYRVAQIEHVAKGRSKTTIAVSIHTTDAPPDAARQAHCVVHLTFLLKTHLQGLEHHHHHH”, the protein production was “failed”.
In the case of “STSPTATKYDVFLSFRGVDTRRNFISFLYKEFVRRKIRTFKDDKELENGRRISPELKRAIEESKFAVVVVSVNYAASPWCLDELVKIMDFENKGSITVMPIFYGVDPCHLRRQIGDVAEQFKKHEAREEDHEKVASWRRALTSLASISGDCSSKCEDEAKLVDEIADKISKNLMTVTTISNGKNLVGIDTHMKALNKKLDLNSNKSLRVVGIWARGYNGRSALAKYVYQDICHHFDSHCFLGSVKRISQGRHLSHLHEEFLIRIQGSKHNLKDQKVLLVADDVYKLEQLDALAEDFNGFGPGSVVIITTQDKHLFVSAGIKLVYEVELLKFQKVCELFRQFAFKKRDISAAVKLVYYRATNWLGCLSGRSG”, the protein production is reported as “failed”.
In the case of “MGSASSCRRIYIGTEANQYLAEQTLIYSIRKHLSDPSIEIIPLTQTQQRVGGTRFGFVRFTLPQAMGYQGKALYLDADQLALTDLAPIFDLLPDDKAIACVYEAEGLYNGKPHVQTWHTSVMLLDCEQLAWQPDELFATVVPNKQEPKPGQIRYRNFMELQWFEQERIAKLPPSWNHFNIVTPETNIVHFSHVRSQPWKNPRHELTDFWLGYLKEAIAAGYLRRRDVVAAVARGHVHPWTLKAIA”, the protein production is reported as “failed”.
For “MVTKLALLGAGRIGKVHAKAITTDSRAKLVAVVDAMAGAAEAIAREAQCKVSTIDEVLADKTIDAVIICTPTNTHADLIERFARAGKAIFCEKPVDLDVARAEACAKVVEETGAKVMLGFNRRFDPHFQAVHKAIEDGRIGKVEMVTITSRDPGPPPAEYIKVSGGIFRDMTIHDFDMARFLLGEEVESVFATGSVLVNPEIGALGDFDSASIILTTKSGRQAIISNSRRATYGYDQRIEVHGSEGSAAAENQRPVSIEIANADGYTRPPLHDFFMTRYTTAYAAEIAAFIDSIENNVSPSPSIKDGLIALKLADAALKSATSKTVVTIG”, the protein production was “failed”.
For “MDIKEIDQSSVITPDGQRISFILITPVNMSVLSDEVVAGRISALANILTSIENLQILCLNASQSYEKNKEHLAAQMKTETNEVLAELDRKDIEYLDDIRISMATGREFAFAVRFKKNIGRPQQEQTLKRLLLILLEAGFTARIAEEQELKGILAIYFAQDIYNDYWPDFDGEEILSPAEAKQEKSFLELIAPSIIDFRRQRYYVCGNTQRTVWAVRGYPTTTKDQTIFRELGEKDGVTLHIYTRPVGSYETNKILERAERRNRHMLNNSSRIKEKVEAESNMQDVQLLIENMHRSKEPFLHCAVFIEMAAGNDKALELLQGDVAAILNRHKILYDKLFLQQKEGMISAMPTGQNLFENQFERVLPASSVANMFPFSYSGKTDPQGMYIGRDANGSNIIVNFDQRGQDKTNGHIIILGNSGEGKSFLLKILSCIFRQSRKNLYILDPENEYKELTEALGGTYMDMMTGKYIINPLEPRLWNQEPVSELESPDTPKAFFKPLRINQHIAFLRDFFSAYKPFPTEQLDTLEIMLELLYKEFHITEETDYSRLRSSDYPILTDLYKLMTRELENYEEKAETGLVVYRKETLRELCLGLHGICTGAESVYFNGYTNIPNAKHIDFGVKDMLSTNQSLSNAMYFNILSFMSHKFLTEGDTNICCDELHELLKNRIAISYLLSFIKRGRKRGSNVILASQNVSDFFLPEIVEYTKPLLSIPTHRFLFYPGSCDTEEYKRVLGVSDSEYRVIQNPNRGHCLYSCGNERYHLHVIAPKYKKALFGTAGGALEHHHHHH”, the protein production was “failed”.
In the case of “MKNFLMKKIIYSGVLSIHFILAFVVNSVGAAQLKKSSTLSMNVLFITIDDLNNDLGAYGHHLVKSPNIDALAKKGIRFDKAYSQSPMCTPSRSSFMTGLYPDQTGIIAHGSHTQMTAHFREHIPKVTTLPQLFKNNGYFSGRVGKIYHQGVPNQIGTSGADDAASWHETVNPIGLDKDVEDKIIAFNEKALVRQSFGGVLSFLAIGDDDKAHTDGKVATETINMIKDHHPDKTGKPFFIGAGFYRPHTPFVAPKKYFDLYPLEKIKPYIAPKNDRKDIPDIALQDREGQVGLTLNQRKQIIQGYYAAVSYVDAQVGRVLDALKQQDLSDNTIVVFLSDHGYELGQHGLWQKGSLFEGSARAPLIIYAPNVKDNGRVVTSPVELVDIYPTLAKLTGLVAPEYLAGKDLTPALNDVDFQVRKGAYSAILNRNKGDNNQFAFTKIRGHSIRTNRYRYTEWGEGYFGAELYDHKNDPQELKNLADKVSLESVRIKMKWLLNDAMDDAQKRIKSIE”, the protein production is reported as “failed”.
For “MNKLEERSQHRKSRFRFLVISTFWRVLLLLKNDAEPLFHLGNIHYAYGHKASAMNYWKEAVSKNREHEKAWHNLVQCAVIQEEWEQAAEGLTILCRNHPTRFEYMSLYTHALKKLGKKEELEEWYLSHINGPHHEWAIEGLGMLYIRTRREIDAFKLLSPFVRKFPNRPVGLKILGISSIRTNQYEAGLTFLEKSLELKEDKEVKSLVDRVKRLKKVRGGNR”, the protein production was “failed”.
